Measurements reported in PMC9482650, “Quantitative fragmentomics allow affinity mapping of interactomes” (Nature Communications, 2022).

Legend:
Assay in all cases: holdup assay
Set-up in all cases: key: below the threshold = too weak to quantify, mostly under pKd 3.1 to 4
[1] = target: Inadl_10, Q8NI35
[2] = target: T1, MPDZ_5, O75970
T1 sequence (O75970 695-796, limits assumed, looked up): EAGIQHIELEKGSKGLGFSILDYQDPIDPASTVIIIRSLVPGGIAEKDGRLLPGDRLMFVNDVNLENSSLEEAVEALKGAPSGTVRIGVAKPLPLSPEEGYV

[3] = target: GRASP, Q7Z6J2
Sequence of GRASP, Q7Z6J2 (Q7Z6J2 96-193): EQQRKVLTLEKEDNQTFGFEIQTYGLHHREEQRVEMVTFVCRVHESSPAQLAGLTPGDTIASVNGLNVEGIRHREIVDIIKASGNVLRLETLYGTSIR

[4] = target: MAGI2_2, Q86UL8
Sequence of MAGI2_2, Q86UL8 (Q86UL8 410-522): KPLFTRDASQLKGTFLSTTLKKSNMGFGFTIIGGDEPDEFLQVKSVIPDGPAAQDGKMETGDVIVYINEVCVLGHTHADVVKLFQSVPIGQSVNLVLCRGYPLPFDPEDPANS

[5] = target: T2, DLG3_1, Q92796
T2 sequence (Q92796 125-227, limits assumed, looked up): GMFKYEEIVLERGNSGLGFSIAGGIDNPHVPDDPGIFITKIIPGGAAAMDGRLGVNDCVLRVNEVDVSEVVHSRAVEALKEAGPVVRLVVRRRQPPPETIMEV

[6] = target: T3, LIN7A, O14910
T3 sequence (O14910 103-200, limits assumed, looked up): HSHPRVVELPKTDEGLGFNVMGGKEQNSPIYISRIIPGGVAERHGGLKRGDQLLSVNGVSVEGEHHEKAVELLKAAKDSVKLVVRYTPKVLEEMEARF

[7] = target: SCRIB_1, Q14160
Sequence of SCRIB_1, Q14160 (Q14160 718-814): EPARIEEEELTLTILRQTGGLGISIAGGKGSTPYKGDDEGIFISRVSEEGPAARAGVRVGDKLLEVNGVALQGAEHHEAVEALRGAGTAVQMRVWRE

[8] = target: T4, MPDZ_10, O75970
T4 sequence (O75970 1624-1722, limits assumed, looked up): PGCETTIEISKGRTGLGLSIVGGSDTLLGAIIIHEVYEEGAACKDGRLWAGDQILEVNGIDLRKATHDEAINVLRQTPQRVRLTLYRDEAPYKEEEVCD

[9] = target: FRMPD2_3, Q68DX3
Sequence of FRMPD2_3, Q68DX3 (Q68DX3 1073-1166): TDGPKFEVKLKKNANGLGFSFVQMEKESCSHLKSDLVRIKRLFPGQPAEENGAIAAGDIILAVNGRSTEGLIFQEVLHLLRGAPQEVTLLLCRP

[10] = target: T5, NHERF3_1, Q5T2W1
T5 sequence (Q5T2W1 4-100, limits assumed, looked up): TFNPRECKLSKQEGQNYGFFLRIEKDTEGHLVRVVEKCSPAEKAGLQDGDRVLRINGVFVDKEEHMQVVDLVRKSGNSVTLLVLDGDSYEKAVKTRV

[11] = target: DLG2_3, Q15700
[12] = target: TJP2_1, Q9UDY2
Sequence of TJP2_1, Q9UDY2 (Q9UDY2 24-128): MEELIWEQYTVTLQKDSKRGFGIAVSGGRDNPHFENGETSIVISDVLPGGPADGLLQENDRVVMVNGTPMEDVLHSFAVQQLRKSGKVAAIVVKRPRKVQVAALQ

[13] = target: MAGI2_3, Q86UL8
Sequence of MAGI2_3, Q86UL8 (Q86UL8 600-682): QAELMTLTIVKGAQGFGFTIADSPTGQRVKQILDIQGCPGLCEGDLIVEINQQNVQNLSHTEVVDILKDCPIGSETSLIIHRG

[14] = target: IL16_3, Q14005
Sequence of IL16_3, Q14005 (Q14005 1107-1207): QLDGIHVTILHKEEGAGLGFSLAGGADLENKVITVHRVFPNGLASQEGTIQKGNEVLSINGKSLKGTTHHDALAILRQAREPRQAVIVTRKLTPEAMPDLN

[15] = target: CASK, O14936
Sequence of CASK, O14936 (O14936 487-570): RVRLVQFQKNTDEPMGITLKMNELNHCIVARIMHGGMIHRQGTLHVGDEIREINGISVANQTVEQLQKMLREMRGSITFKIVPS

[16] = target: T6, PARD3B_1, Q8TEW8
T6 sequence (Q8TEW8 196-299, limits assumed, looked up): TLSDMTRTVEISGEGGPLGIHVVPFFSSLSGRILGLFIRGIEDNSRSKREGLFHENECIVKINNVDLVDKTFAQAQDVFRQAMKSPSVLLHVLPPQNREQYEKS

[17] = target: SCRIB_2, Q14160
Sequence of SCRIB_2, Q14160 (Q14160 857-960): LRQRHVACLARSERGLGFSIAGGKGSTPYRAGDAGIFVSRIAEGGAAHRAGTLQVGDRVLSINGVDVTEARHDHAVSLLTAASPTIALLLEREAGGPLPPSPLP

[18] = target: PDLIM1, O00151
Sequence of PDLIM1, O00151 (O00151 1-87): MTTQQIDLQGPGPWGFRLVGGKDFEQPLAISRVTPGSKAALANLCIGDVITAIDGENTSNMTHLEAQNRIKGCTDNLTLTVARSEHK

[19] = target: MAGI1_1, Q96QZ7
Sequence of MAGI1_1, Q96QZ7 (Q96QZ7 1-106): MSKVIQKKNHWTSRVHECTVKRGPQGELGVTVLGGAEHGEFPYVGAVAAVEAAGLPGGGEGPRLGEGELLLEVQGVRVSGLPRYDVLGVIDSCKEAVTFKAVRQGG

[20] = target: T7, DFNB31_2, Q9P202
T7 sequence (Q9P202 274-371, limits assumed, looked up): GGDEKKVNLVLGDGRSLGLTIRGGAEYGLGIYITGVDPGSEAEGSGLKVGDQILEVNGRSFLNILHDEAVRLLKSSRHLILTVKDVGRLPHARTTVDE

[21] = target: T8, DFNB31_1, Q9P202
T8 sequence (Q9P202 135-233, limits assumed, looked up): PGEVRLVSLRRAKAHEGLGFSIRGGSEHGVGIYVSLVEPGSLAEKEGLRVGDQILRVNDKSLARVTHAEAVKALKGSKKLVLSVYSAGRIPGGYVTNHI

[22] = target: Inadl_5, Q8NI35
Sequence of Inadl_5, Q8NI35 (Q8NI35 673-780): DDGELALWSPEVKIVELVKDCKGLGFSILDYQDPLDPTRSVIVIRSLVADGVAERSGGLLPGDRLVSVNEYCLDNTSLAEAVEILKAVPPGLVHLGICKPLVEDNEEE

[23] = target: GIPC2, Q8TF65
Sequence of GIPC2, Q8TF65 (Q8TF65 112-203): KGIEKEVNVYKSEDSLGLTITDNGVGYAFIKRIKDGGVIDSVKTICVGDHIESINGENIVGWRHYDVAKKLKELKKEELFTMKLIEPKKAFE

[24] = target: Inadl_1, Q8NI35
Sequence of Inadl_1, Q8NI35 (Q8NI35 113-229): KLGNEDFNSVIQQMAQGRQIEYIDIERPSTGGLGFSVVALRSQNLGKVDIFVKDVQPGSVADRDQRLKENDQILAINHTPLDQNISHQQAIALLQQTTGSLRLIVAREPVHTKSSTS

[25] = target: GRID2IP_1, A4D2P6
Sequence of GRID2IP_1, A4D2P6 (A4D2P6 1-87): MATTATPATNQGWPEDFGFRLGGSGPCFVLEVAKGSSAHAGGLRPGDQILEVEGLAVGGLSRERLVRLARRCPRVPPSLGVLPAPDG

[26] = target: T9, RADIL, Q96JH8
T9 sequence (Q96JH8 971-1071, limits assumed, looked up): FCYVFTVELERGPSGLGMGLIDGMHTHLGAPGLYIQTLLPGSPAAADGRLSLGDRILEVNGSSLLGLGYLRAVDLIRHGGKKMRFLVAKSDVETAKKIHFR

[27] = target: T10, FRMPD1, Q5SYB0
T10 sequence (Q5SYB0 52-145, limits assumed, looked up): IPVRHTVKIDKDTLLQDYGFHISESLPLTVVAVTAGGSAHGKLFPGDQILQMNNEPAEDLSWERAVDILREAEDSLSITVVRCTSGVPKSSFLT

[28] = target: GRIP2_3, Q9C0E4
Sequence of GRIP2_3, Q9C0E4 (Q9C0E4 238-339): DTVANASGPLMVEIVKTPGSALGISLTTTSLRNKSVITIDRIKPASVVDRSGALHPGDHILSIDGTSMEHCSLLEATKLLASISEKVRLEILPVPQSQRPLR

[29] = plain residues with an end cap or a label only (N-terminal biotin on a linker: ado-ado)
[30] = plain residues with an end cap or a label only (N-terminal biotin on a linker: ttds)
[31] = plain residues with an end cap or a label only (N-terminal biotin on a linker: ahx)

Sequence of Inadl_10, Q8NI35 (Q8NI35 1673-1763): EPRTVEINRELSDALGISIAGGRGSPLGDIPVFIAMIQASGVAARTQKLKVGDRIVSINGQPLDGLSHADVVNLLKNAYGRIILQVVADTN

Binder: SVVSERISSV [HTR2C, P28335]
- pKd [1, 29]: below the threshold
- pKd [2, 29]: below the threshold
- pKd [3, 29]: 4.55
- pKd [4, 29]: 3.77
- pKd [5, 29]: below the threshold
- pKd [6, 29]: below the threshold
- pKd [7, 29]: below the threshold
- pKd [8, 29]: 4.29
- pKd [9, 29]: below the threshold
- pKd [10, 29]: below the threshold
- pKd [11, 29]: 3.89
- pKd [12, 29]: below the threshold
- pKd [13, 29]: 4.3
- pKd [14, 29]: below the threshold
- pKd [15, 29]: below the threshold
- pKd [16, 29]: below the threshold
- pKd [17, 29]: below the threshold
- pKd [18, 29]: below the threshold
- pKd [19, 29]: below the threshold
- pKd [20, 29]: below the threshold
- pKd [21, 29]: below the threshold
- pKd [22, 29]: below the threshold
- pKd [23, 29]: below the threshold
- pKd [24, 29]: below the threshold
- pKd [25, 29]: below the threshold
- pKd [26, 29]: 3.74
- pKd [27, 29]: below the threshold
- pKd [28, 29]: below the threshold

Binder: MERLRVETDV [ARHGEF16, Q5VV41]
- pKd [1, 30]: below the threshold
- pKd [2, 30]: 3.6
- pKd [3, 30]: below the threshold
- pKd [4, 30]: 4.38
- pKd [5, 30]: 4.59
- pKd [6, 30]: below the threshold
- pKd [7, 30]: 4.58
- pKd [8, 30]: 3.71
- pKd [9, 30]: below the threshold
- pKd [10, 30]: below the threshold
- pKd [11, 30]: 4.11
- pKd [12, 30]: below the threshold
- pKd [13, 30]: 3.53
- pKd [14, 30]: below the threshold
- pKd [15, 30]: below the threshold
- pKd [16, 30]: below the threshold
- pKd [17, 30]: 5.01
- pKd [18, 30]: 4
- pKd [19, 30]: below the threshold
- pKd [20, 30]: below the threshold
- pKd [21, 30]: below the threshold
- pKd [22, 30]: below the threshold
- pKd [23, 30]: 3.75
- pKd [24, 30]: below the threshold
- pKd [25, 30]: below the threshold
- pKd [26, 30]: below the threshold
- pKd [27, 30]: below the threshold
- pKd [28, 30]: below the threshold

Binder: IQREDQETAV [DGKZ, Q13574]
- pKd [1, 30]: below the threshold
- pKd [2, 30]: below the threshold
- pKd [3, 30]: 3.67
- pKd [4, 30]: 3.65
- pKd [5, 30]: 4.26
- pKd [6, 30]: below the threshold
- pKd [7, 30]: 4.71
- pKd [8, 30]: below the threshold
- pKd [9, 30]: 3.71
- pKd [10, 30]: 5.14
- pKd [11, 30]: 4.38
- pKd [12, 30]: below the threshold
- pKd [13, 30]: 4.45
- pKd [14, 30]: below the threshold
- pKd [15, 30]: below the threshold
- pKd [16, 30]: below the threshold
- pKd [17, 30]: 4.86
- pKd [18, 30]: below the threshold
- pKd [19, 30]: below the threshold
- pKd [20, 30]: below the threshold
- pKd [21, 30]: 4.81
- pKd [22, 30]: below the threshold
- pKd [23, 30]: 3.67
- pKd [24, 30]: below the threshold
- pKd [25, 30]: below the threshold
- pKd [26, 30]: below the threshold
- pKd [27, 30]: below the threshold
- pKd [28, 30]: below the threshold

Binder: KTSAHHATFV [RGS12, O14924]
- pKd [1, 31]: 3.91
- pKd [2, 31]: 3.58
- pKd [3, 31]: 4.12
- pKd [4, 31]: 4.29
- pKd [5, 31]: below the threshold
- pKd [6, 31]: below the threshold
- pKd [7, 31]: 3.8
- pKd [8, 31]: 3.98
- pKd [9, 31]: below the threshold
- pKd [10, 31]: 4.41
- pKd [11, 31]: 3.47
- pKd [12, 31]: 4.45
- pKd [13, 31]: below the threshold
- pKd [14, 31]: below the threshold
- pKd [15, 31]: below the threshold
- pKd [16, 31]: below the threshold
- pKd [17, 31]: 3.47
- pKd [18, 31]: below the threshold
- pKd [19, 31]: below the threshold
- pKd [20, 31]: below the threshold
- pKd [21, 31]: 3.61
- pKd [22, 31]: 3.86
- pKd [23, 31]: below the threshold
- pKd [24, 31]: below the threshold
- pKd [25, 31]: below the threshold
- pKd [26, 31]: 5.28
- pKd [27, 31]: below the threshold
- pKd [28, 31]: below the threshold
